According to paper PMC4463452, “Olfactomedin-1 Has a V-shaped Disulfide-linked Tetrameric Structure*^([image sbox.jpg])” (The Journal of Biological Chemistry, 2015):

Target: the molecule itself
Assay: SEC-MALS; analytical Superdex200 5/150, room temperature, GF buffer (150 mM NaCl, 20 mM HEPES, pH 7.5); oligomeric state of the disulfide-linked assembly

B1: full-length Olfm1 (mouse olfactomedin-1, isoform 1, residues 17-478) (natural protein, UniProt O88998 17-478, looked up)
chain: MITNWMSQTLPSLVGLNTTRLSAASGGTLDRSTGVLPTNPEESWQVYSSAQDSEGRCICTVVAPQQTMCSRDARTKQLRQLLEKVQNMSQSIEVLDRRTQRDLQYVEKMENQMKGLETKFKQVEESHKQHLARQFKAIKAKMDELRPLIPVLEEYKADAKLVLQFKEEVQNLTSVLNELQEEIGAYDYDELQSRVSNLEERLRACMQKLACGKLTGISDPVTVKTSGSRFGSWMTDPLAPEGDNRVWYMDGYHNNRFVREYKSMVDFMNTDNFTSHRLPHPWSGTGQVVYNGSIYFNKFQSHIIIRFDLKTEAILKTRSLDYAGYNNMYHYAWGGHSDIDLMVDENGLWAVYATNQNAGNIVISKLDPVSLQILQTWNTSYPKRSAGEAFIICGTLYVTNGYSGGTKVHYAYQTNASTYEYIDIPFQNKYSHISMLDYNPKDRALYAWNNGHQTLYNVTLFH
modifications: N-linked glycans (eight predicted); interprotein disulfides
notes: the C-terminal VIRSDEL segment is not included; the native signal peptide is replaced by an N-terminal cystatin secretion signal of the vector pUPE107.03; also called noelin; pancortin; source: N-acetylglucosaminyltransferase I-deficient, EBNA1-expressing HEK293 cells, transient expression, secreted; purified (nickel-nitrilotriacetic acid, Superdex200 gel filtration); also unpurified in …
  stoichiometry N: 4
